Test results published in patent US20210388087A1 (Chugai, published 2021).

T1: Human CD3eg linker (human)
T1 construct: single-chain construct; also called recombinant human CD3
T1 chain: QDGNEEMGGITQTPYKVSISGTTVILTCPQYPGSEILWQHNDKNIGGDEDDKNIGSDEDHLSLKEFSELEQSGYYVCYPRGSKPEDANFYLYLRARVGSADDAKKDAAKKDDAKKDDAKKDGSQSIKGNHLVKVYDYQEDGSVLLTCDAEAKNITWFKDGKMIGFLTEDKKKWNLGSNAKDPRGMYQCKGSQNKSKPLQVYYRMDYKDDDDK


Molecular target: T1, Human CD3eg linker
Assay: SPR, vs unmutated H183/L072

Binder	fold change of affinity [fold]
dBBDu183H P61V/dBBDu072L (antibody, name in Kabat numbering, V domains shown) VH: QVQLVESGGGLVQPGRSLRLSCAASGFTFSNAWMHWVRQAPGKGLEWVAQIKDKGNAYAAYYAVSVKGRFTISRDDSKNSIYLQMNSLKTEDTAVYYCHYVHYASASTVLPAFGVDAWGQGTTVTVSS VL: DIVMTQSPLSLPVTPGEPASISCQASQELVHMNRNTYLHWYQQKPGQAPRLLIYKVSNRFPGVPDRFSGSGSGTDFTLKISRVEAEDVGVYYCAQGTSVPFTFGQGTKLEIK	1.8
dBBDu183H A98F/dBBDu072L (antibody, name in Kabat numbering, V domains shown) VH: QVQLVESGGGLVQPGRSLRLSCAASGFTFSNAWMHWVRQAPGKGLEWVAQIKDKGNAYAAYYAPSVKGRFTISRDDSKNSIYLQMNSLKTEDTAVYYCHYVHYFSASTVLPAFGVDAWGQGTTVTVSS VL: DIVMTQSPLSLPVTPGEPASISCQASQELVHMNRNTYLHWYQQKPGQAPRLLIYKVSNRFPGVPDRFSGSGSGTDFTLKISRVEAEDVGVYYCAQGTSVPFTFGQGTKLEIK	12.1
dBBDu183H A98H/dBBDu072L (antibody, name in Kabat numbering, V domains shown) VH: QVQLVESGGGLVQPGRSLRLSCAASGFTFSNAWMHWVRQAPGKGLEWVAQIKDKGNAYAAYYAPSVKGRFTISRDDSKNSIYLQMNSLKTEDTAVYYCHYVHYHSASTVLPAFGVDAWGQGTTVTVSS VL: DIVMTQSPLSLPVTPGEPASISCQASQELVHMNRNTYLHWYQQKPGQAPRLLIYKVSNRFPGVPDRFSGSGSGTDFTLKISRVEAEDVGVYYCAQGTSVPFTFGQGTKLEIK	5.9
dBBDu183H A98G/dBBDu072L (antibody, name in Kabat numbering, V domains shown) VH: QVQLVESGGGLVQPGRSLRLSCAASGFTFSNAWMHWVRQAPGKGLEWVAQIKDKGNAYAAYYAPSVKGRFTISRDDSKNSIYLQMNSLKTEDTAVYYCHYVHYGSASTVLPAFGVDAWGQGTTVTVSS VL: DIVMTQSPLSLPVTPGEPASISCQASQELVHMNRNTYLHWYQQKPGQAPRLLIYKVSNRFPGVPDRFSGSGSGTDFTLKISRVEAEDVGVYYCAQGTSVPFTFGQGTKLEIK	1.4
dBBDu183H A98Q/dBBDu072L (antibody, name in Kabat numbering, V domains shown) VH: QVQLVESGGGLVQPGRSLRLSCAASGFTFSNAWMHWVRQAPGKGLEWVAQIKDKGNAYAAYYAPSVKGRFTISRDDSKNSIYLQMNSLKTEDTAVYYCHYVHYQSASTVLPAFGVDAWGQGTTVTVSS VL: DIVMTQSPLSLPVTPGEPASISCQASQELVHMNRNTYLHWYQQKPGQAPRLLIYKVSNRFPGVPDRFSGSGSGTDFTLKISRVEAEDVGVYYCAQGTSVPFTFGQGTKLEIK	0.7
dBBDu183H A98K/dBBDu072L (antibody, name in Kabat numbering, V domains shown) VH: QVQLVESGGGLVQPGRSLRLSCAASGFTFSNAWMHWVRQAPGKGLEWVAQIKDKGNAYAAYYAPSVKGRFTISRDDSKNSIYLQMNSLKTEDTAVYYCHYVHYKSASTVLPAFGVDAWGQGTTVTVSS VL: DIVMTQSPLSLPVTPGEPASISCQASQELVHMNRNTYLHWYQQKPGQAPRLLIYKVSNRFPGVPDRFSGSGSGTDFTLKISRVEAEDVGVYYCAQGTSVPFTFGQGTKLEIK	4.6
dBBDu183H A98E/dBBDu072L (antibody, name in Kabat numbering, V domains shown) VH: QVQLVESGGGLVQPGRSLRLSCAASGFTFSNAWMHWVRQAPGKGLEWVAQIKDKGNAYAAYYAPSVKGRFTISRDDSKNSIYLQMNSLKTEDTAVYYCHYVHYESASTVLPAFGVDAWGQGTTVTVSS VL: DIVMTQSPLSLPVTPGEPASISCQASQELVHMNRNTYLHWYQQKPGQAPRLLIYKVSNRFPGVPDRFSGSGSGTDFTLKISRVEAEDVGVYYCAQGTSVPFTFGQGTKLEIK	0.3
dBBDu183H A98R/dBBDu072L (antibody, name in Kabat numbering, V domains shown) VH: QVQLVESGGGLVQPGRSLRLSCAASGFTFSNAWMHWVRQAPGKGLEWVAQIKDKGNAYAAYYAPSVKGRFTISRDDSKNSIYLQMNSLKTEDTAVYYCHYVHYRSASTVLPAFGVDAWGQGTTVTVSS VL: DIVMTQSPLSLPVTPGEPASISCQASQELVHMNRNTYLHWYQQKPGQAPRLLIYKVSNRFPGVPDRFSGSGSGTDFTLKISRVEAEDVGVYYCAQGTSVPFTFGQGTKLEIK	2.7
dBBDu183H A98N/dBBDu072L (antibody, name in Kabat numbering, V domains shown) VH: QVQLVESGGGLVQPGRSLRLSCAASGFTFSNAWMHWVRQAPGKGLEWVAQIKDKGNAYAAYYAPSVKGRFTISRDDSKNSIYLQMNSLKTEDTAVYYCHYVHYNSASTVLPAFGVDAWGQGTTVTVSS VL: DIVMTQSPLSLPVTPGEPASISCQASQELVHMNRNTYLHWYQQKPGQAPRLLIYKVSNRFPGVPDRFSGSGSGTDFTLKISRVEAEDVGVYYCAQGTSVPFTFGQGTKLEIK	1.5
dBBDu183H A98D/dBBDu072L (antibody, name in Kabat numbering, V domains shown) VH: QVQLVESGGGLVQPGRSLRLSCAASGFTFSNAWMHWVRQAPGKGLEWVAQIKDKGNAYAAYYAPSVKGRFTISRDDSKNSIYLQMNSLKTEDTAVYYCHYVHYDSASTVLPAFGVDAWGQGTTVTVSS VL: DIVMTQSPLSLPVTPGEPASISCQASQELVHMNRNTYLHWYQQKPGQAPRLLIYKVSNRFPGVPDRFSGSGSGTDFTLKISRVEAEDVGVYYCAQGTSVPFTFGQGTKLEIK	0.4

Molecular target: T2, CD3 epsilon homodimer protein (UniProt P07766 23-126)
T2 construct: also called CD3 (CD3 epsilon)
Assay: SPR, antibody over immobilised CD3e homodimer;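 note: SPR at 25 °C with CD3 epsilon homodimer amine-coupled to a CM4 sensor chip and antibody flowed over as analyte in HBS-EP+ running buffer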

T2 sequence (P07766 23-126): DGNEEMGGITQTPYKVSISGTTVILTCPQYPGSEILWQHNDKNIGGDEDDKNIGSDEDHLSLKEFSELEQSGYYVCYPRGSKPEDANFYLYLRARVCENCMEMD

Binder	KD ratio to GLS3000
CE115HA000/GLS3000 Y32P (antibody, IgG1, name in Kabat numbering, V domains shown, one-arm IgG1) VH: QVQLVESGGGVVQPGRSLRLSCAASGFTFSNAWMHWVRQAPGKGLEWVAQIKAKSNNYATYYAESVKGRFTISRDDSKNSLYLQMNSLKTEDTAVYYCRYVHYGAYYGVDAWGQGTTVTVSS VL: DIVMTQSPLSLPVTPGEPASISCRSSQSLVHSNRNTPLHWYQQKPGQAPRLLIYKVSNRFSGVPDRFSGSGSGTDFTLKISRVEAEDVGVYYCGQGTQVPYTFGQGTKLEIK	62
CE115HA000/GLS3000 Y32A (antibody, IgG1, name in Kabat numbering, V domains shown, one-arm IgG1) VH: QVQLVESGGGVVQPGRSLRLSCAASGFTFSNAWMHWVRQAPGKGLEWVAQIKAKSNNYATYYAESVKGRFTISRDDSKNSLYLQMNSLKTEDTAVYYCRYVHYGAYYGVDAWGQGTTVTVSS VL: DIVMTQSPLSLPVTPGEPASISCRSSQSLVHSNRNTALHWYQQKPGQAPRLLIYKVSNRFSGVPDRFSGSGSGTDFTLKISRVEAEDVGVYYCGQGTQVPYTFGQGTKLEIK	66.8
CE115HA000/GLS3000 Y32D (antibody, IgG1, name in Kabat numbering, V domains shown, one-arm IgG1) VH: QVQLVESGGGVVQPGRSLRLSCAASGFTFSNAWMHWVRQAPGKGLEWVAQIKAKSNNYATYYAESVKGRFTISRDDSKNSLYLQMNSLKTEDTAVYYCRYVHYGAYYGVDAWGQGTTVTVSS VL: DIVMTQSPLSLPVTPGEPASISCRSSQSLVHSNRNTDLHWYQQKPGQAPRLLIYKVSNRFSGVPDRFSGSGSGTDFTLKISRVEAEDVGVYYCGQGTQVPYTFGQGTKLEIK	25.9
CE115HA000/GLS3000 Y96H (antibody, IgG1, name in Kabat numbering, V domains shown, one-arm IgG1) VH: QVQLVESGGGVVQPGRSLRLSCAASGFTFSNAWMHWVRQAPGKGLEWVAQIKAKSNNYATYYAESVKGRFTISRDDSKNSLYLQMNSLKTEDTAVYYCRYVHYGAYYGVDAWGQGTTVTVSS VL: DIVMTQSPLSLPVTPGEPASISCRSSQSLVHSNRNTYLHWYQQKPGQAPRLLIYKVSNRFSGVPDRFSGSGSGTDFTLKISRVEAEDVGVYYCGQGTQVPHTFGQGTKLEIK	80.3
CE115HA000/GLS3000 Y96E (antibody, IgG1, name in Kabat numbering, V domains shown, one-arm IgG1) VH: QVQLVESGGGVVQPGRSLRLSCAASGFTFSNAWMHWVRQAPGKGLEWVAQIKAKSNNYATYYAESVKGRFTISRDDSKNSLYLQMNSLKTEDTAVYYCRYVHYGAYYGVDAWGQGTTVTVSS VL: DIVMTQSPLSLPVTPGEPASISCRSSQSLVHSNRNTYLHWYQQKPGQAPRLLIYKVSNRFSGVPDRFSGSGSGTDFTLKISRVEAEDVGVYYCGQGTQVPETFGQGTKLEIK	46.8
CE115HA000/GLS3000 Y32F (antibody, IgG1, name in Kabat numbering, V domains shown, one-arm IgG1) VH: QVQLVESGGGVVQPGRSLRLSCAASGFTFSNAWMHWVRQAPGKGLEWVAQIKAKSNNYATYYAESVKGRFTISRDDSKNSLYLQMNSLKTEDTAVYYCRYVHYGAYYGVDAWGQGTTVTVSS VL: DIVMTQSPLSLPVTPGEPASISCRSSQSLVHSNRNTFLHWYQQKPGQAPRLLIYKVSNRFSGVPDRFSGSGSGTDFTLKISRVEAEDVGVYYCGQGTQVPYTFGQGTKLEIK	4.51
CE115HA000/GLS3000 Y96D (antibody, IgG1, name in Kabat numbering, V domains shown, one-arm IgG1) VH: QVQLVESGGGVVQPGRSLRLSCAASGFTFSNAWMHWVRQAPGKGLEWVAQIKAKSNNYATYYAESVKGRFTISRDDSKNSLYLQMNSLKTEDTAVYYCRYVHYGAYYGVDAWGQGTTVTVSS VL: DIVMTQSPLSLPVTPGEPASISCRSSQSLVHSNRNTYLHWYQQKPGQAPRLLIYKVSNRFSGVPDRFSGSGSGTDFTLKISRVEAEDVGVYYCGQGTQVPDTFGQGTKLEIK	40.9
CE115HA000/GLS3000 Y96L (antibody, IgG1, name in Kabat numbering, V domains shown, one-arm IgG1) VH: QVQLVESGGGVVQPGRSLRLSCAASGFTFSNAWMHWVRQAPGKGLEWVAQIKAKSNNYATYYAESVKGRFTISRDDSKNSLYLQMNSLKTEDTAVYYCRYVHYGAYYGVDAWGQGTTVTVSS VL: DIVMTQSPLSLPVTPGEPASISCRSSQSLVHSNRNTYLHWYQQKPGQAPRLLIYKVSNRFSGVPDRFSGSGSGTDFTLKISRVEAEDVGVYYCGQGTQVPLTFGQGTKLEIK	1.84
CE115HA000/GLS3000 V94Y (antibody, IgG1, name in Kabat numbering, V domains shown, one-arm IgG1) VH: QVQLVESGGGVVQPGRSLRLSCAASGFTFSNAWMHWVRQAPGKGLEWVAQIKAKSNNYATYYAESVKGRFTISRDDSKNSLYLQMNSLKTEDTAVYYCRYVHYGAYYGVDAWGQGTTVTVSS VL: DIVMTQSPLSLPVTPGEPASISCRSSQSLVHSNRNTYLHWYQQKPGQAPRLLIYKVSNRFSGVPDRFSGSGSGTDFTLKISRVEAEDVGVYYCGQGTQYPYTFGQGTKLEIK	2.45
CE115HA000/GLS3000 Y96F (antibody, IgG1, name in Kabat numbering, V domains shown, one-arm IgG1) VH: QVQLVESGGGVVQPGRSLRLSCAASGFTFSNAWMHWVRQAPGKGLEWVAQIKAKSNNYATYYAESVKGRFTISRDDSKNSLYLQMNSLKTEDTAVYYCRYVHYGAYYGVDAWGQGTTVTVSS VL: DIVMTQSPLSLPVTPGEPASISCRSSQSLVHSNRNTYLHWYQQKPGQAPRLLIYKVSNRFSGVPDRFSGSGSGTDFTLKISRVEAEDVGVYYCGQGTQVPFTFGQGTKLEIK	0.86
